In US11529424B2, “Synthetic bioconjugates” (Symic Holdings, Inc., priority 2017, dated 2022):
“And” between values parts separate entries of the source, which are not always exact repeats. Equal values may be shown once. “Also recorded” adds a separate entry of the source. Read-outs that look alike come from different tables or passages of the source. One block for each molecule: values may come before it. Ends that are not written are not given here. * marks the point of attachment. NHNH2 = NN*

Experiments:
collagen = test: Collagen-binding plate assay; settings: for collagen binding EC50: compared to the EC50 for Compound 4
Protocol: The following method is used to assess the binding affinity of bioconjugates disclosed herein for collagen.
Collagen-binding of bioconjugate variants is compared by a plate-assay, in which collagen is coated on 96-well plates. Collagen is coated on high-bind plates at 50 μg/mL in 0.02 N acetic acid for 1 hour at room temperature. Unbound collagen is rinsed with 1×PBS pH 7.4. Plates are then blocked in 1% milk in 1×PBS solution for 1 hour at room temperature.
Bioconjugate variants containing biotinlyated peptides are dissolved to a final concentration of 1 mg/mL in 1% milk in 1×PBS pH 7.4. From this solution, a 10× serial dilution is performed. Molecules are then incubated on the blocked collagen-coated plates and incubated for 15 minutes at room temperature. Plates are then rinsed 3 times with 1×PBS in 1% BSA and 0.2% Tween20.
Bound molecules are detected by streptavidin-HRP, which was diluted 1:500 in 1× PBS with 1% BSA and 0.2% Tween20 and incubated 200 μL/well for 20 minutes at room temperature. Streptavidin solution is rinsed from the plates 3 times with 1×PBS with 0.2% Tween20. TMB Substrate solution is then added to each well 100 μL/well for 15 minutes at room temperature, and the color evolution was stopped with 100 μL sulfuric acid solution (0.16 M). Absorbance in the well is then measured at 450 nm and binding affinity plotted in a dose-response by absorbance vs. concentration.
This method was used to compare collagen binding affinity of various collagen-binding bioconjugates by comparing EC50 values. More specifically, the EC50 values for each bioconjugate was compared to the EC50 for Compound 4.

[1] = tested on: platelet binding to Type I fibrillar collagen; test: Platelet aggregation: platelet binding to collagen under flow; format: cell-based; settings: 2 mg/mL on collagen-coated slides, human whole blood, sheer rate 1000 s−1, 10 minutes; compared to Compound 1
Protocol: Type I fibrillar collagen was adsorbed to Ibidi μ-slides by overnight incubation at 2-8° C. The Ibidi μ-slides were rinsed with Phosphate Buffer Saline (PBS), and then blocked with 1% BSA in 1×PBS. Compound 10 (shown in FIG. 12B) and Compound 1 at 2 mg/mL (shown in 12A) were applied to Ibidi μ-slides and left to incubate. After 1 hour excess conjugates were rinsed away with 1×PBS. Freshly drawn human whole blood was prestained with Calcein AM (Live Fluorescent cell marker). Blood was pumped across the channels at a sheer rate of 1000 s−1 using a syringe pump for 10 minutes. As blood flows across the Ibidi μ-Slides, Fluorescent microscope was used to take images of aggregated fluorescently labeled platelets.

[2] = tested on: mouse model of Non-Alcoholic Steatohepatitis (NASH); test: Non-Alcoholic Steatohepatitis (NASH) mouse model, liver collagen by Sirius Red; format: in vivo, C57BL/6 mice; settings: week 5 to week 9; Compound 10 3×/week intravenous, Telmisartan daily oral; compared to the vehicle treated group
Protocol: The ability of the compounds to affect liver fibrosis was tested in a mouse model of Non-Alcoholic Steatohepatitis (NASH). C57BL/6 mice received a single subcutaneous injection of 200 μg streptozotocin after birth. Beginning at 4 weeks of age, animals were fed a high fat diet. […] A separate group of animals received daily oral administration of Telmisartan during the same period Animals were sacrificed at 9 weeks of age and the livers were collected for histological and biochemical analysis. Histological analysis of the livers for collagen content was performed using Sirius Red staining.

Collagen Type I = Collagen Type I (Homo sapiens, UniProt P02452+P08123); test: Collagen Binding Assay 2; settings: with GSGSGSRR spacer versus binding domain without spacer and spacer alone, FIG. 18 and 19
Protocol: GQLYKSILYGSGSGSRR (SEQ ID NO: 6) (Compound 10) was evaluated for binding affinity against the GQLYKSILYGSG (SEQ ID NO: 59) (Peptide X) binding domain without spacer and against the spacer sequence alone, GSGSGSRR (SEQ ID NO: 4) (Spacer A), results shown in FIG. 18. […] WREPSFSALS (SEQ ID NO: 8), also known as vWF-2× due to its binding to the von Willebran binding site on collagen, was evaluated for binding affinity with and without the GSGSGSRR (SEQ ID NO: 4) spacer.
50 μg/ml of Collagen Type I was adsorbed onto high bind plates by incubating overnight. Plates were then washed with PBS and blocked using 1% Non-fat milk in PBS for 1 hour. Molecule dilutions were prepared in 1% BSA in PBS and then incubated for 1 hour at 25° C. Plates were then washed with PBS containing 0.05% Tween 20. A 1:500 dilution of Streptavidin-HRP in 1% BSA PBS was prepared and added to the plates for 20 minutes. Plates were then washed with PBS and TMB solution was added for 10 minutes for color development. The color development was stopped using 0.16 M sulfuric acid and absorbance at […] was measured using a plate reader. Compound 10 was used as a reference standard for all EC50 results.

[3] = target: collagen (coated on 96-well plates, Example 2); test: collagen-coated 96-well plate, biotin-labelled bioconjugate, streptavidin-HRP/TMB, absorbance at 450 nm (Example 2)
[4] = target: collagen (coated on 96-well plates, Example 2); test: collagen-coated 96-well plate, biotin-labelled bioconjugate, streptavidin-HRP/TMB, absorbance at 450 nm (Example 2), the concentration axis is in ug/ml
[5] = target: collagen (coated on 96-well plates, Example 2); test: collagen-coated 96-well plate, biotin-labelled bioconjugate, streptavidin-HRP/TMB, absorbance at 450 nm (Example 2); remark: listed apart in the source
[6] = target: collagen (coated on 96-well plates, Example 2); test: collagen-coated 96-well plate, biotin-labelled bioconjugate, streptavidin-HRP/TMB, absorbance at 450 nm (Example 2); Kd unit inferred, the concentration axis is in ug/ml

Chain of Collagen Type I (P02452 162-1218 limits assumed): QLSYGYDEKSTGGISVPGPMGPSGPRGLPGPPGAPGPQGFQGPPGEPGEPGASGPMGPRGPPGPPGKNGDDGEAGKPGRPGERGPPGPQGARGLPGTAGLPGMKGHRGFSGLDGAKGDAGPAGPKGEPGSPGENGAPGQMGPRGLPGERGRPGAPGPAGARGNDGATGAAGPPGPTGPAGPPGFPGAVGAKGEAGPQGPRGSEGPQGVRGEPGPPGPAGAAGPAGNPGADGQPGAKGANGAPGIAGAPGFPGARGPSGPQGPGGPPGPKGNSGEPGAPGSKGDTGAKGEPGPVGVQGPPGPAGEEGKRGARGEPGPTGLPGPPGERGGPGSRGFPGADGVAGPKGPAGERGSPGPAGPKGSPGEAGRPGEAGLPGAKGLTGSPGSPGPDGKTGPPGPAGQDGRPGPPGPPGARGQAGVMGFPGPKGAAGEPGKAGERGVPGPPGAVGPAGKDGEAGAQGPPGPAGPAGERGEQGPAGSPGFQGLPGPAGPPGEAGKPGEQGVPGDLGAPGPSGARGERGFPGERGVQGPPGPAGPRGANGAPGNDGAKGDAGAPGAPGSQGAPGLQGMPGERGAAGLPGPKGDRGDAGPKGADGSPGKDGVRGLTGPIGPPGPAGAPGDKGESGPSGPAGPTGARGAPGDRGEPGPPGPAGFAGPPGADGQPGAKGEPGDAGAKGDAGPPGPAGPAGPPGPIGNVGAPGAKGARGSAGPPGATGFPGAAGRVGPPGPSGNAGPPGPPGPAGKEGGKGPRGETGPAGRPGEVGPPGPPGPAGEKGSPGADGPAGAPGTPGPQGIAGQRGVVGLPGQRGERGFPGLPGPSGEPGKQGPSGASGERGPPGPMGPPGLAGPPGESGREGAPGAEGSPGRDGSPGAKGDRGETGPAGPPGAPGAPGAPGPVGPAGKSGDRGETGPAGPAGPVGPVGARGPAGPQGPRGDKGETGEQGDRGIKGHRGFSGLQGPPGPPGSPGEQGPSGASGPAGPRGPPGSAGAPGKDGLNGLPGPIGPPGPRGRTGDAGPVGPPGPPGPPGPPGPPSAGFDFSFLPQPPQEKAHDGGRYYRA
Chain of Collagen Type I (P08123 80-1119 limits assumed): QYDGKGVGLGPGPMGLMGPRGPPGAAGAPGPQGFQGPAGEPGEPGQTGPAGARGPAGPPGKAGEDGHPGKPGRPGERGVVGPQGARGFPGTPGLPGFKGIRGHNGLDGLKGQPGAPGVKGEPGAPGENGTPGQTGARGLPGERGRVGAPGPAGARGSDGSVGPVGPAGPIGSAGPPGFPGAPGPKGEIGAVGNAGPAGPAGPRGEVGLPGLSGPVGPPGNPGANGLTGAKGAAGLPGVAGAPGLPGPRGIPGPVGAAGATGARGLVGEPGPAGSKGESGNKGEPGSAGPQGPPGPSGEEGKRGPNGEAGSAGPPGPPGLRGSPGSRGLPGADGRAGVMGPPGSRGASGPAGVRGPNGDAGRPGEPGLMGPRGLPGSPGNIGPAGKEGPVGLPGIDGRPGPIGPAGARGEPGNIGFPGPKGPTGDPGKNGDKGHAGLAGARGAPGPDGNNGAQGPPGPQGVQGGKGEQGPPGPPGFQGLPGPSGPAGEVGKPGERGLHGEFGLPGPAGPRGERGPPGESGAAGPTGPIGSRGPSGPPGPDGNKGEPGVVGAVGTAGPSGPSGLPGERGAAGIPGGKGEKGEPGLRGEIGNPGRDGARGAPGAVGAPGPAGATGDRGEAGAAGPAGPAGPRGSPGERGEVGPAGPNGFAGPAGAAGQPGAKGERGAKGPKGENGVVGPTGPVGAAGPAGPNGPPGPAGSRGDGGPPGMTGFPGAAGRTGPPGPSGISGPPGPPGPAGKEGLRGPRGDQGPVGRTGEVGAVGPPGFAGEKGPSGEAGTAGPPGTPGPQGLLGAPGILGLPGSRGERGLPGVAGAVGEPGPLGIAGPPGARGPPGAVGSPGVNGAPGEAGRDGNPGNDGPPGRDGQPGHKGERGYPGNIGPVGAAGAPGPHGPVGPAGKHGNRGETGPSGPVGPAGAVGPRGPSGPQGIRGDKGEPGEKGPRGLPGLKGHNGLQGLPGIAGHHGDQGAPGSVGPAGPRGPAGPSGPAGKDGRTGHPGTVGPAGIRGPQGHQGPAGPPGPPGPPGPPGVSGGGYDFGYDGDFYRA

- collagen binding affinity (Collagen Type I): increase in binding affinity
Molecule: WREPSFSALSGSGSGSRR [WREPSFSALSGSGSGSRR (SEQ ID NO: 110)]

- EC50 [4]: 63.3 µg/mL
B2: Compound 6 (peptide)
peptide conjugated to heparin: GQLYKSILYGSRGRGSG
modifications: not fully specified; C-terminal hydrazide (-NHNH2) coupled to heparin; part of the peptides biotin-labelled

- EC50 (read off the curve) [3]: 20 µg/mL
- EC50 [4]: 15 µg/mL
B4: Compound 10 (heparin bioconjugate of …-NHNH2) (peptide)
peptide: GQLYKSILYGSGSGSRR
modifications: not fully specified; C-terminal hydrazide (-NHNH-) bonded to a carboxyl of heparin; part of the peptides biotin-labelled

- EC50 (read off the curve) [3]: 60 µg/mL
B6: Compound 14 (heparin bioconjugate of …) (peptide)
peptide: GQLYKSILYGSGKKGSG
modifications: also: conjugated to heparin

- EC50 (read off the curve) [5]: 60 µg/mL
- EC50 [4]: 47.1 µg/mL
B7: Compound 8 (heparin bioconjugate of …-NHNH2) (peptide)
peptide: GQLYKSILYGSRGSG
modifications: not fully specified; C-terminal hydrazide (-NHNH-) bonded to a carboxyl of heparin; part of the peptides biotin-labelled

- EC50 (read off the curve) [3]: 100 µg/mL
B8: Compound 19 (heparin bioconjugate of (…)2-KRRGSG-NHNH2) (peptide)
peptide 1: RVMHGLHLGDDEGSG
peptide 2: KRRGSG
modifications: not fully specified (C-terminus); printed as (RVMHGLHLGDDEGSG)2-KRRGS; also: two copies of chain 1 bonded to the N-terminal branching lysine of chain 2, about 3 branched peptides per heparin (16 kDa)

- Kd [6]: 112 µg/mL
B9: Compound 3 (heparin bioconjugate of …-NHNH2) (peptide)
peptide: GQLYKSILYGSG
modifications: not fully specified; C-terminal hydrazide (-NHNH-) bonded to a carboxyl of heparin; part of the peptides biotin-labelled

- EC50 (read off the curve) [3]: 30 µg/mL
B10: Compound 12 (heparin bioconjugate of …-NHNH2) (peptide)
peptide: GQLYKSILYGSGRRRGSG
modifications: not fully specified; C-terminal hydrazide (-NHNH-) bonded to a carboxyl of heparin; part of the peptides biotin-labelled

Second part, the molecule before the results:

Molecule: Compound 8: heparin bioconjugate with peptide GQLYKSILYGSRGSG-NHNH2 (Peptide 8), 1:8 glycan to peptide (also: heparin bioconjugate, 1:8 glycan to peptide, attachment site not given here)
- collagen binding EC50 (collagen): increases EC50; also recorded: slightly increases EC50

Molecule: Compound 10: heparin bioconjugate with peptide GQLYKSILYGSGSGSRR-NHNH2 (Peptide 10), 1:8 glycan to peptide (also: heparin bioconjugate, 1:8 glycan to peptide, attachment site not given here)
- collagen binding EC50 (collagen): decreases the EC50
- platelet binding to Type I fibrillar collagen [1]: inhibits platelet binding to Type I fibrillar collagen
- levels of collagen in the liver (Sirius Red staining) [2]: decreased levels of collagen in the liver
- collagen binding affinity (Collagen Type I): greater binding affinity than the binding domain or the spacer in isolation

Molecule: Compound 4: heparin bioconjugate with peptide GQLYKSILYGSGRRGSG-NHNH2 (Peptide 4), 1:8 glycan to peptide (also: heparin bioconjugate, 1:8 glycan to peptide, attachment site not given here)
- collagen binding affinity (Kd) (collagen; compared to Compound 5 and Compound 3, FIG. 11): significant increase in collagen binding affinity (lower Kd)

Molecule: CCCc1nc2c(C)cc(-c3nc4ccccc4n3C)cc2n1Cc1ccc(-c2ccccc2C(=O)O)cc1 [Telmisartan, reference compound]
- levels of collagen in the liver (Sirius Red staining) [2]: decreased levels of collagen in the liver

B1: Compound 13 (heparin bioconjugate of …-NHNH2) (peptide)
peptide: GQLYKSILYGSGRGSGSGSG
modifications: not fully specified (C-terminus); printed as GQLYKSILYGSGRGSGSGSG-; also: about 5 peptides per heparin (16 kDa), part of the peptides biotin-labelled
- EC50 (read off the curve) [3]: 60 µg/mL

B3: Compound 4 (heparin bioconjugate of …-NHNH2) (peptide)
peptide: GQLYKSILYGSGRRGSG
modifications: not fully specified; C-terminal hydrazide (-NHNH-) bonded to a carboxyl of heparin; part of the peptides biotin-labelled
- EC50 (read off the curve) [3]: 50 µg/mL
- EC50 (read off the curve) [5]: 40 µg/mL
- EC50 [4]: 40.4 µg/mL and 32.1 µg/mL
- Kd [6]: 42.5 µg/mL

B5: Compound 20 (peptide)
peptide conjugated to heparin: GSGGQLYKSILY
modifications: not fully specified (N-terminus); also: part of the peptides biotin-labelled, heparin backbone average 16 kDa
- Kd [6]: 35.1 µg/mL

B11: Compound 9 (heparin bioconjugate of …-NHNH2) (peptide)
peptide: GQLYKSILYRRGSGSGS
modifications: not fully specified; C-terminal hydrazide (-NHNH-) bonded to a carboxyl of heparin; part of the peptides biotin-labelled
- EC50 (read off the curve) [3]: 50 µg/mL

B12: Compound 7 (peptide)
peptide conjugated to heparin: GQLYKSILYGRSGRGSG
modifications: not fully specified; C-terminal hydrazide (-NHNH2) coupled to heparin; part of the peptides biotin-labelled
- EC50 [4]: 44.2 µg/mL

B13: Compound 11 (heparin bioconjugate of …-NHNH2) (peptide)
peptide: GQLYKSILYGSRRGS
modifications: not fully specified; C-terminal hydrazide (-NHNH-) bonded to a carboxyl of heparin; part of the peptides biotin-labelled
- EC50 (read off the curve) [5]: 50 µg/mL

B14: Compound 5 (heparin bioconjugate of …-NHNH2) (peptide)
peptide: GQLYKSILYGSGSGSGS
modifications: not fully specified; C-terminal hydrazide (-NHNH-) bonded to a carboxyl of heparin; part of the peptides biotin-labelled
- Kd [6]: 103 µg/mL and 113 µg/mL
